Test [1] deals with T1, Trx-Stau951-1,018 (Drosophila, UniProt P25159 951-1018).
T1 chain: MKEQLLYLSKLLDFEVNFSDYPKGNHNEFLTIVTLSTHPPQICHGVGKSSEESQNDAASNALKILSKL
Kind of test: ITC; Mira fragments injected into Stau fragments; 25 °C; 50 mM Tris pH 8.0, 100 mM NaCl, 1 mM EDTA. (In general: In ITC the heat of successive injections is recorded.)

The next test has as its target T2, Stau dsRBD5 Y971K (Drosophila, UniProt P25159 951-1018).
T2 chain: T1 chain with Y21K
Kind of test: ITC.

For test [2], the target named is T1, Trx-Stau951-1,018. Kind of test: ITC.

Positions count from the first letter of the chain named. Numbers in names are those of the source.

B1: Trx-Mira514–595 (domain or fragment)
chain: NYQLTLTNTRATVNILMERLKKSDADVEQYRAELESVQLAKGALEQSYLVLQADAEQLRQQLTESQDALNALRSSSQTLQSE
On to B1, for which the Kd with Trx-Stau951-1,018 [1] worked out at 1.07 µM; in the test with Stau dsRBD5 Y971K it was 8.7 µM.

B2: Mira514–595 R532A (domain or fragment)
chain: B1 chain with R19A
The molecule B2 came in with a Kd in the test with Trx-Stau951-1,018 [2] of 72.5 µM.

The Kd is a measure of binding affinity in units of concentration. The low end stands for a tighter complex, the high end for a looser complex.

(Values after PMC4600727 (2015).)
